{"source": "paper PMC10855774", "about": "“Role of Spexin in White Adipose Tissue Thermogenesis under Basal and Cold-Stimulated Conditions” (International Journal of Molecular Sciences, 2024)", "key": {"[1]": {"test_system": "galr2", "assay": "galr2 mRNA expression in AT depots (qRT-PCR)", "type": "in vivo, mice", "conditions": "RT and cold", "procedure": "(§1) Normal adult male C57BL/6 mice (four months of age) were kept in a temperature-controlled environment (20–22 °C and a fixed 12 h light/12 h dark cycle; lights on at 07:00 h) and fed ad libitum with Purina commercial rat/mouse chow (Ganave, Buenos Aires, Argentina, L0723/1). Mice were injected with SPX or PBS (29 µg/kg/day, Tocris, Bristol, UK) for ten days (the SPX and CTR groups, respectively). On the third day of the protocol, each group was subdivided into two other groups: one exposed to cold (4 °C, CTR-C and SPX-C, n = 12 mice for each group) and another one housed at RT (CTR and SPX, n = 15 mice for each group) (Figure 1). Food intake and body weight were measured every day. On the experimental day (day 10), the mice were euthanized under non-fasting conditions (08:00 to 09:00 h), and their trunk blood was collected; plasma samples were then frozen (–80 °C) until the metabolite measurement. Inguinal AT (IAT, subcutaneous depot), epididymal AT (EAT, visceral depot), and brown AT (BAT, subcutaneous depot) were aseptically dissected and weighed. These depots were kept at –80 °C for further procedures. Animals were euthanized according to protocols for animal use, in agreement with the NIH guidelines for the care and use of experimental animals. All experiments were approved by our Institutional Animal Care Committee (Approval code: 6NE-2023).\nTotal RNA was isolated from cells by the Trizol extraction method (Invitrogen, Life Technology, Waltham, MA, USA) and reverse-transcribed using random primers (250 ng) and RevertAid Reverse Transcriptase (200 U/µL, Thermo Scientific, Waltham, MA, USA). […] The expression levels were analyzed for β-actin (βactin, […] gene), Uncoupling Protein 1 (ucp1), proliferator-activated receptor gamma coactivator-1 alpha (pgc1α), cytochrome-c oxidase subunit 8b (cox8b), galanin receptors 2 and 3 (galr2 and galr3, respectively), and Spexin (spx). […] The relative changes in the expression level of each gene (ΔΔCt) were calculated by the ΔCt method."}, "[2]": {"test_system": "mitochondrial DNA", "assay": "Mitochondrial DNA content quantification (qPCR)", "type": "in vivo, mice", "procedure": "as §1, with “Inguinal AT (IAT, subcutaneous depot), epididymal AT (EAT, visceral depot), and brown AT (BAT, subcutaneous depot) were aseptically dissected and weighed. These depots were kept at –80 °C for further procedures. Animals were euthanized according to protocols for animal use, in agreement with the NIH guidelines for the care and use of experimental animals. All experiments were approved by our Institutional Animal Care Committee (Approval code: 6NE-2023).” left out\nTissue from the EAT and IAT depots were homogenized with lysis buffer (40 mM EDTA, 50 mM NaCl, 100 mM Tris, 0.2% SDS) in PBS (2:1) and, for DNA fragmentation, samples were sonicated (38 kHz ± 10% for 5–10 s). […] Finally, the DNA was dissolved in TE buffer and quantified by Nanodrop at 260 nm. […] The relative changes in the DNA mitochondrial content were calculated by 2[2, −ΔΔCt] […]"}}, "data": [{"molecule": "Spexin (peptide, UniProt Q9BT56 27-116, looked up, Spexin, novel adipokine, a peptide of 14 amino acids of the galanin family; purchased from Tocris) Spexin: APQRLLERRNWTPQAMLYLKGAQGRRFISDQSRRKDLSDRPLPERRSPNPQLLTIPEAATILLASLQKSPEDEEKNFDQTRFLEDSLLNW", "values": [{"measurement": "galr2 mRNA expression in EAT", "setting": "[1]; S p < 0.01", "value": "decreased in both groups treated with SPX"}, {"measurement": "galr2 mRNA expression in IAT", "setting": "[1]; S p < 0.01", "value": "decreased in both groups treated with SPX"}, {"measurement": "galr2 mRNA expression in BAT", "setting": "[1]; Supplementary Figure S3", "value": "no differences were found"}, {"measurement": "mitDNA content in EAT", "setting": "[2]; RT and cold", "value": "no changes"}, {"measurement": "mitDNA content in IAT", "setting": "[2]; cold, SPX-C intermediate between CTR and CTR-C, C × S p < 0.01", "value": "partial inhibition, although no significant differences were found"}]}]}
